Results published in US20200317776A1 (published 2020).
Where two headings read alike, the source gives them in different places.

T1: human TREM2 expressed on cells (human, UniProt Q9NZC2 19-230)
T1 construct: BW5147.G.1.4 cells stably expressing human TREM2 together with Dap12, or endogenous TREM2 of primary human myeloid cells; also called huT2 BW; hTREM2 expressing cell line
T1 sequence: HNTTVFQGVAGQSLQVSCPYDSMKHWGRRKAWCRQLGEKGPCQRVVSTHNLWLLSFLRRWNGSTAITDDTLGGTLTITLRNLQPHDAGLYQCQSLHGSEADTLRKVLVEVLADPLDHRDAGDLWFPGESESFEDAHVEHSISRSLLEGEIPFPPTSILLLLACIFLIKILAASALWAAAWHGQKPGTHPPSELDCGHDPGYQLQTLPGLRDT

T2: human TREM2 Fc fusion (entire TREM2 ECD; only one Fc arm fused to TREM2) (human, UniProt Q9NZC2 19-174)
T2 construct: also called huTREM2-Fc; recombinant hTREM2
T2 sequence: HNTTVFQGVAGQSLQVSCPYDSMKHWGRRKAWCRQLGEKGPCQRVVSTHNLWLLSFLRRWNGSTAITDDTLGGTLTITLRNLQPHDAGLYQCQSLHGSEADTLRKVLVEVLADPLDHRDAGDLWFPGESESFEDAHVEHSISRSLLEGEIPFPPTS

T3: cynomolgus monkey TREM2 Fc fusion (entire TREM2 ECD; only one Fc arm fused to TREM2) (cynomolgus monkey, UniProt Q9NZC2 19-174 (human entry))
T3 construct: also called cyno TREM2-Fc
T3 chain: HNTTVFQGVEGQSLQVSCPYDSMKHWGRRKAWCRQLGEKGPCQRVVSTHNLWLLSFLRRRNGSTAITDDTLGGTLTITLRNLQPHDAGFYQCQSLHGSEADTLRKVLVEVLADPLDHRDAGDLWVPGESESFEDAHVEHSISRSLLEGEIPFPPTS


Columns and labels:
[1] = molecular target: T4, human TREM2/DAP12 fusion protein (human, UniProt O43914 41-113, limits assumed); experiment: cell-based or functional assay
[2] = molecular target: T1, human TREM2 expressed on cells; experiment: FACS, hTREM2 BW cells
[3] = molecular target: T4, human TREM2/DAP12 fusion protein; experiment: cell-based or functional assay; remark: listed apart in the source
[4] = molecular target: T1, human TREM2 expressed on cells; experiment: cell-based or functional assay
[5] = molecular target: T2, human TREM2 Fc fusion (entire TREM2 …); experiment: BLI, IgG, avid
Method in brief: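 Avid format: AHQ-loaded IgGs exposed to 100 nM human or cyno TREM2-Fc antigen, 3 min association, 3 min dissociation in buffer. Monovalent format: human TREM2-Fc loaded on AHQ sensors, exposed to 100 nM Fab. Kinetics fit to 1:1 model, run at 25° C.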

[6] = molecular target: T3, cynomolgus monkey TREM2 Fc fusion …; experiment: BLI, Fab, monovalent
[7] = molecular target: T1, human TREM2 expressed on cells; experiment: FACS, hTREM2 BW cells; remark: listed apart in the source
Method in brief: (§1)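 Cells were BW5147.G.1.4 stably expressing human TREM2 with Dap12, or human monocyte-derived dendritic cells differentiated 6 days with GM-CSF and IL-4. Antibodies bound 1 h on ice in PBS+2% FBS, then PE anti-human secondary 30 min on ice; flow cytometry read-out as mean fluorescence intensity.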

[8] = molecular target: T1, human TREM2 expressed on cells; experiment: FACS, hTREM2 BW cells; remark: listed apart in the source
[9] = molecular target: T1, human TREM2 expressed on cells; experiment: cell-based or functional assay; remark: listed apart in the source
[10] = molecular target: T4, human TREM2/DAP12 fusion protein; experiment: cell-based or functional assay; remark: listed apart in the source
Target sequence in this assay (O43914 other isoform, or with tags, fused parts or gaps limits assumed): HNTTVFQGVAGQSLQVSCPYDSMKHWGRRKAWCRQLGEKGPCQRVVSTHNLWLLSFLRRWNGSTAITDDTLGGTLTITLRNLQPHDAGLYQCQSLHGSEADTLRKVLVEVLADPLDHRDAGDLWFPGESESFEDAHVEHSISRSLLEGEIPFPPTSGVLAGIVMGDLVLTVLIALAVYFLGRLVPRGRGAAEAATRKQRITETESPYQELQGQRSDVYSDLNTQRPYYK

[11] = molecular target: T4, human TREM2/DAP12 fusion protein; experiment: cell-based or functional assay; remark: listed apart in the source
Target sequence in this assay (O43914 other isoform, or with tags, fused parts or gaps limits assumed): as above

[12] = molecular target: T4, human TREM2/DAP12 fusion protein; experiment: cell-based or functional assay; remark: listed apart in the source
[13] = molecular target: T4, human TREM2/DAP12 fusion protein; experiment: cell-based or functional assay; remark: listed apart in the source
[14] = molecular target: T1, human TREM2 expressed on cells; experiment: FACS, hTREM2 expressing cell line
[15] = molecular target: T2, human TREM2 Fc fusion (entire TREM2 …); experiment: BLI, Fab, monovalent
[16] = molecular target: T1, human TREM2 expressed on cells; experiment: FACS, human DCs
Method in brief: as §1

[17] = molecular target: T1, human TREM2 expressed on cells; experiment: cell-based or functional assay; remark: listed apart in the source
[18] = molecular target: T4, human TREM2/DAP12 fusion protein; experiment: cell-based or functional assay; remark: listed apart in the source
Target sequence in this assay (O43914 other isoform, or with tags, fused parts or gaps limits assumed): as above

[19] = molecular target: T2, human TREM2 Fc fusion (entire TREM2 …); experiment: BLI

Binder | Kd [5] [nM] | Kd [6] [nM] | Kd [7] [nM] | Kd [8] [nM] | Survival huDCs plate bound IgG, AUC [9] [AUC] | Luciferase activation plate bound 33 nM IgG, FOC [10] [FOC] | Luciferase activation soluble 10 nM IgG, FOC [10] [FOC] | luciferase activation, soluble IgG, EC50 [11] [nM] | luciferase activation, soluble IgG, EC50 [12] [nM] | Reporter assay soluble IgG (EC50, nM) [13] [nM] | Kd [14] [nM] | Kd [15] [nM] | luciferase activation, plate bound IgG, EC50 [12] [nM] | Reporter assay plate bound IgG (EC50, nM) [13] [nM] | other results
AL2p-58 huIgG1 PSEG (antibody, IgG1 with P331S and E430G; also called AL2p-58 PSEG) heavy: not shown light: DVVMTQSPDSLAVSLGERATINCRSSQSLVHSNRYTYLHWYQQKPGQSPKLLIYKVSNRFSGVPDRFSGSGSGTDFTLKISRVEAEDVGVYYCSQSTRVPYTFGQGTKLEIKRTVAAPSVFIFPPSDEQLKSGTASVVCLLNNFYPREAKVQWKVDNALQSGNSQESVTEQDSKDSTYSLSSTLTLSKADYEKHKVYACEVTHQGLSSPVTKSFNRGEC | – | – | – | – | – | – | – | – | – | – | – | – | – | – | plate bound signal activation, fold over AL2p [1]: ~10 fold over AL2p; Bmax (MFI) [2]: 140000 MFI; Kd [2]: 0.36 nM; Plate bound IgG, fold over unstimulated control (25 nM IgG) [3]: 12.9 fold; Soluble IgG, EC50 [3]: 2.99 nM; Soluble IgG, fold over control IgG (17 nM IgG) [3]: 12.1 fold; EC50 viability, dendritic cells D558 [4]: 0.206 nM; EC50 viability, dendritic cells D559 [4]: 0.276 nM; EC50 viability, dendritic cells D560 [4]: 0.206 nM; EC50 viability, macrophages D558 [4]: 0.001 nM; EC50 viability, macrophages D559 [4]: 0.322 nM; EC50 viability, macrophages D560 [4]: 0.426 nM
AL2p-3 (antibody, V domains shown, AL2p-h50 variant; Fab and IgG formats under one id) VH: QVQLVQSGAEVKKPGSSVKVSCKASGYAFSSSWMNWVRQAPGQGLEWMGRIYPGEGDTNYAQKFQGRVTITADESTSTAYMELSSLRSEDTAVYYCARLLRNQPGESYAMDYWGQGTLVTVSS VL: DVVMTQTPLSLSVTPGQPASISCRSSQSLVHSNGYTYLHWYLQKPGQSPQLLIYKVSNRFSGVPDRFSGSGSGTDFTLKISRVEAEDVGVYYCSQSTRVPYTFGQGTKLEIK | 1.19 | 4580 | 2.3 | 2.3 | 363000 | 6.03 | 1.29 | 50 | – | – | – | – | – | – | –
AL2p (parental mouse anti-TREM2 antibody) (antibody, V domains shown, Parental mouse antibody; Fab and IgG formats under one id; also called 9F5; 9F5a) VH: QVQLQQSGPELVKPGASLKISCKASGYAFSSSWMNWVKQRPGKGLEWIGRIYPGDGDTNYNGEFRVRATLTADTSSTTAYMQLSSLTSEDSAVYFCARLLRNQPGESYAMDYWGQGASVTVSS VL: DVVMTQTPLSLPVSLGDQASISCRSSQSLVHSNGYTYLHWYLQKPGQSPKLLIYKVSNRFSGVPDRFSGSGSGTDFTLKISRVEADDLGVYFCSQSTRVPYTFGGGTKLEIK | – | – | – | – | – | – | – | – | 19.3 | 19 | 3.04 | – | – | – | –
AL2p-6 (antibody, V domains shown, AL2p-h50 variant; Fab and IgG formats under one id) VH: QVQLVQSGAEVKKPGSSVKVSCKASGYAFSSSWMNWVRQAPGQGLEWMGRIYPGDGDTNYAQKFQGRVTITADESTSTAYMELSSLRSEDTAVYYCARLLRNQPGESYAMDYWGQGTLVTVSS VL: DVVMTQTPLSLSVTPGQPASISCRSSQSLVHSNWYTYLHWYLQKPGQSPQLLIYKVSNRFSGVPDRFSGSGSGTDFTLKISRVEAEDVGVYYCSQSTRVPYTFGQGTKLEIK | 1.06 | 1150 | 4.2 | 4.2 | 547000 | 5.39 | 1.2 | 38.6 | – | – | – | 259 | – | – | –
AL2p-31 (antibody, V domains shown, Fab and IgG formats under one id) VH: QVQLVQSGAEVKKPGSSVKVSCKASGYAFSSQWMNWVRQAPGQGLEWMGRIYPGGGDTNYARKFQGRVTITADESTSTAYMELSSLRSEDTAVYYCARLLRNQPGESYAMDYWGQGTLVTVSS VL: GVVMTQTPLSLSVTPGQPASISCRSSQSLVHSNGYTYLHWYLQKPGQSPQLLIYKVSNRRSGVPDRFSGSGSGTDFTLKISRVEAEDVGVYYCSQSTRVPYTFGQGTKLEIK | 0.317 | 3.44 | 1 | 1.23 | 1.21e+06 | 28.2 | 2.83 | 6.92 | 1.14 | 11.4 | 0.56 | 4.03 | 10.1 | 10.1 | MFI [16]: 288 MFI; DC viability (AUC) [17]: 860000 AUC; Mac viability (AUC) [17]: 83700 AUC; BW Luc assay plate bound 7.3 nM IgG, FOC [18]: 7.49 FOC; BW Luc assay soluble 7.3 nM IgG, FOC [18]: 4.48 FOC
AL2p-47 (antibody, V domains shown, Fab and IgG formats under one id (explicit huIgG1 is m97); also called AL2-47) VH: QVQLVQSGAEVKKPGSSVKVSCKASGYAFSSDWMNWVRQAPGQGLEWMGRIYPGEGDTNYARKFHGRVTITADESTSTAYMELSSLRSEDTAVYYCARLLRNKPGESYAMDYWGQGTLVTVSS VL: DVVMTQTPLSLSVTPGQPASISCRTSQSLVHSNAYTYLHWYLQKPGQSPQLLIYKVSNRVSGVPDRFSGSGSGTDFTLKISRVEAEDVGVYYCSQSTRVPYTFGQGTKLEIK | – | 16.3 | 1.09 | – | – | – | – | – | 104 | 105 | 1.22 | 14.8 | 206 | 206 | fold improvement in affinity (KD) vs AL2p [19]: ~10 fold; MFI [16]: 372 MFI; DC viability (AUC) [17]: 771000 AUC; Mac viability (AUC) [17]: 22100 AUC; BW Luc assay plate bound 7.3 nM IgG, FOC [18]: 3.54 FOC; BW Luc assay soluble 7.3 nM IgG, FOC [18]: 3.48 FOC
AL2p-58 (antibody, V domains shown, Fab and IgG formats under one id (explicit huIgG1 is m95, PSEG is m96)) VH: QVQLVQSGAEVKKPGASVKVSCKASGYAFSSQWMNWVRQAPGQRLEWIGRIYPGGGDTNYAGKFQGRVTITADTSASTAYMELSSLRSEDTAVYYCARLLRNQPGESYAMDYWGQGTLVTVSS VL: DVVMTQSPDSLAVSLGERATINCRSSQSLVHSNRYTYLHWYQQKPGQSPKLLIYKVSNRFSGVPDRFSGSGSGTDFTLKISRVEAEDVGVYYCSQSTRVPYTFGQGTKLEIK | – | 12.4 | 0.51 | – | – | – | – | – | 14 | 14 | 0.51 | 13.3 | 36 | 36.1 | fold improvement in affinity (KD) vs AL2p [19]: ~10 fold
